Tests used:
Gal4 AD-FAF1 WT, Q9UNN5 = target: T1, Gal4 AD-FAF1 WT, Q9UNN5; assay: yeast two-hybrid, quantitative liquid β-galactosidase assay; conditions: chain shown with the change; yeast strain L40; parent: est. 1500000; read off a plot
T1 chain: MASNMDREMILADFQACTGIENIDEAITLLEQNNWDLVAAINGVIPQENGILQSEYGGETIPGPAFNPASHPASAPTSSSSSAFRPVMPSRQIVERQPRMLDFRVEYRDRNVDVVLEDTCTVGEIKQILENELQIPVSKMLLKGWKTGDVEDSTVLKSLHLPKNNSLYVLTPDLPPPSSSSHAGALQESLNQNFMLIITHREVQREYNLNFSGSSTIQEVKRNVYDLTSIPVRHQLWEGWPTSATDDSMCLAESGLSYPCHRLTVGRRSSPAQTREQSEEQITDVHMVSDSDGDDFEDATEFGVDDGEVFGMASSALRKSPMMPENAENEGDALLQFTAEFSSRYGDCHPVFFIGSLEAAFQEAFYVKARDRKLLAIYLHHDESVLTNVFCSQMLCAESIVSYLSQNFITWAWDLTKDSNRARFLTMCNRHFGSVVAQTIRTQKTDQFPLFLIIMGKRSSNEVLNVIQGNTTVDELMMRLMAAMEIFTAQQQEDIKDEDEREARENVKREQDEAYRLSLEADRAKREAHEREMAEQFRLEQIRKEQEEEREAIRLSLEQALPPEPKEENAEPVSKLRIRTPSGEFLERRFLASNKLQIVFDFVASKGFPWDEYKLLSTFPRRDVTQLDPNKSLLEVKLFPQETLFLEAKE

[1] = target: T2, Gal4 AD-mSin3A (full-length), Q60520; assay: as above; conditions: chain shown with the change; yeast strain L40; parent: est. 60000; read off a plot
T2 chain: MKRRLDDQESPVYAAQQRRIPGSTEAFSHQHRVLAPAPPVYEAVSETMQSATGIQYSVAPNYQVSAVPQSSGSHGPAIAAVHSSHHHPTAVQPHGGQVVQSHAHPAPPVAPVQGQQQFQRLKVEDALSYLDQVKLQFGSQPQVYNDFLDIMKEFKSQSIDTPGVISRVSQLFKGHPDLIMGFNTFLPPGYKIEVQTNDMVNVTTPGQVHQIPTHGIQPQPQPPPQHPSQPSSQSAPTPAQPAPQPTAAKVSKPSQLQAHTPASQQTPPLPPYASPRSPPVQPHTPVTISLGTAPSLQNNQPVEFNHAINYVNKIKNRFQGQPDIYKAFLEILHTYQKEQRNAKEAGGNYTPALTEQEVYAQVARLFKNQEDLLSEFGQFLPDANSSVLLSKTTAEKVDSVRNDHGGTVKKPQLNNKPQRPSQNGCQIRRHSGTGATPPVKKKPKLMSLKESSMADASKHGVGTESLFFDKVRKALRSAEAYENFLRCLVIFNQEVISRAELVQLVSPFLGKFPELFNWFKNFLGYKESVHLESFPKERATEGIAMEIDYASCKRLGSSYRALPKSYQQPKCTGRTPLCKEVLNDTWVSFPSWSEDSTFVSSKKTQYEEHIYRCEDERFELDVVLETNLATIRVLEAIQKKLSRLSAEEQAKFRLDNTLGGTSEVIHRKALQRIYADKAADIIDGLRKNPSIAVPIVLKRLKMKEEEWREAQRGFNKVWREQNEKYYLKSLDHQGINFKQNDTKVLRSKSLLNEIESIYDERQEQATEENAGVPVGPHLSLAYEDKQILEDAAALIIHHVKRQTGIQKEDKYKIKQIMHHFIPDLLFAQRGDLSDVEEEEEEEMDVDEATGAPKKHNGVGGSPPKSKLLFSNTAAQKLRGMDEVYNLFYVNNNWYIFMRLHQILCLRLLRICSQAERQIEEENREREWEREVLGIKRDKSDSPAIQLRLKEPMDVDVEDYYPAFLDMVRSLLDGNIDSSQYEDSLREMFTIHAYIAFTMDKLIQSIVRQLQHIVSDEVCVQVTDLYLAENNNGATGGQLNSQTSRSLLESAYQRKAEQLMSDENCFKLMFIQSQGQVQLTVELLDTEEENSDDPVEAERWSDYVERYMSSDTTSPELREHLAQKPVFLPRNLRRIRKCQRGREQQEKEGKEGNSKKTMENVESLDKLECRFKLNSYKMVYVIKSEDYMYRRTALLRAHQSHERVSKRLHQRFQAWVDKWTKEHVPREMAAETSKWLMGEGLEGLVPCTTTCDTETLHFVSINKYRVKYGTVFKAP

response (Gal4 AD-FAF1 WT, Q9UNN5): 43000
response [1]: 190000
B1: LexA-SAP130 C-terminal region (amino acids 760-1048) WT, Q9H0E3 K794A; K878A; K932A (protein)
chain: APPPSVTVGGSLSSVLGPPVPEIKVAEEVEPMDIMRPVSAVPPLATNTVSPSLALLANNLSMPTSDLPPGASPRKKPRKQQHVISTEEGDMMETNSTDDEKSTAKSLLVAAEKRKSPPKEYIDEEGVRYVPVRPRPPITLLRHYRNPWKAAYHHFQRYSDVRVAEEKKAMLQEIANQKGVSCRAQGWKVHLCAAQLLQLTNLEHDVYERLTNLQEGIIPKKKAATDDDLHRINELIQGNMQRCKLVMDQISEARDSMLKVLDHKDRVLKLLNKNGTVKKVSKLKRKEKV

Source: article PMC10765799
